Measurements as given in patent US20240150449A1 (MABYLON, published 2024).

Biological target: T1, recombinant non-phosphorylated full-length TDP-43 (human, UniProt Q13148 1-414)
T1 construct: Bought recombinant protein; also called non-pathological full-length TDP-43; recombinantly expressed full-length TDP-43 (OriGene Technologies)
Experiment: ELISA, antigen coated
Protocol: Plates were washed with PBS-Tween 0.05% and blocked 1 h at room temperature with PBS containing 5% Milk (Rapilait, Migros, Zurich, Switzerland) or 2% bovine serum albumin (BSA, Sigma-Aldrich Chemie GmbH, Buchs, Switzerland). Patient sera, B cell conditioned medium, or recombinant antibody preparations were incubated for 2 h at room temperature. Binding of human IgG to the antigen of interest was determined using a HRP-conjugated anti human antibody (anti-IgG-HRP from Jackson ImmunoResearch, West Grove, PA, USA) followed by measurement of the HRP activity using a tetramethylbenzidine substrate solution (TMB, Sigma-Aldrich Chemie GmbH, Buchs, Switzerland).

T1 sequence (Q13148 whole entry): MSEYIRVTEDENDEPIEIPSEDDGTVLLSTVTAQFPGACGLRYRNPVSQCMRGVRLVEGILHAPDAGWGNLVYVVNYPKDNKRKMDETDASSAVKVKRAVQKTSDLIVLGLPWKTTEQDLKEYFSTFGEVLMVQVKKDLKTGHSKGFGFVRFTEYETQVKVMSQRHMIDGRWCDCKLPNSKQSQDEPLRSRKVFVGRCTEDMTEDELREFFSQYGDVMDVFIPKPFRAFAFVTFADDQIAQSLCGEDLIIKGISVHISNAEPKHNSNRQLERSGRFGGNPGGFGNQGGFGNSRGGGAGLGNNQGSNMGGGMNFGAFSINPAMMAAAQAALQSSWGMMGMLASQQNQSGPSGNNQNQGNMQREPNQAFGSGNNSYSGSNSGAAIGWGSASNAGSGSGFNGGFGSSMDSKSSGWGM

binding result: no binding
B1: antibody 15D7 (human IgG) (antibody, V domains shown)
VH: EVQLVESGGGLVQPGGSLRLSCSASGFTFGNYAMHWVRQAPGKGLEYVSAMSSNGGSTYYGDSVKGRFTISRDNSKNTLYLQMSSLRAEDTAVYYCVTRGRKAPSLYYFDCWGPGTLVTVSS
VL: not shown
notes: Recombinant human IgG
